In US20190092856A1:

Molecular target: human OSM (recombinant, mammalian-cell derived, OSMN1-1) (human) (UniProt P13725)
Assay: cell-based or functional assay

Sequence of human OSM (recombinant, mammalian-cell derived, OSMN1-1) (human) (P13725 26-221 limits assumed): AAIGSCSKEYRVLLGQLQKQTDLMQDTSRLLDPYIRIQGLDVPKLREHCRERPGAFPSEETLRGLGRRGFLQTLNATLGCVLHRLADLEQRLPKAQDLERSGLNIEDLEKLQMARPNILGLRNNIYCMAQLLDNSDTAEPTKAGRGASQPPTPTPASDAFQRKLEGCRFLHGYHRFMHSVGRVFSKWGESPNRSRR

pSTAT3 inhibition EC50 (A375 cells, 5 ng/ml hOSM): 72.1 ng/ml
Substance: MAB295 (R&D Systems) (antibody)
